We go through one molecule from US6670183.

For test [1], the target named is GP88 cell surface receptors on CCL64 mink lung epithelial cells (mink). Put plainly: Scatchard analysis, 125I-rGP88 on CCL64 cells; low affinity class of sites.
For test [2] the target is unchanged. Put plainly: Scatchard analysis, 125I-rGP88 on CCL64 cells; high affinity class of sites.
The target is the same in test [3]. Put plainly: Scatchard analysis, 125I-rGP88 displaced by cold rGP88 on CCL64 cells in suspension; low affinity class of sites.
For test [4] the target is unchanged. The test can be described thus: Scatchard analysis, 125I-rGP88 displaced by cold rGP88 on CCL64 cells in suspension; high affinity class of sites.

B1: recombinant GP88 (rGP88), mouse GP88 expressed in baculovirus infected Sf9 insect cells (ligand)
chain: TQCPDGQFCPVACCLDQGGANYSCCNPLLDTWPRITSHHLDGSCQTHGHCPAGYSCLLTVSGTSSCCPFSKGVSCGDGYHCCPQGFHCSADGKSCFQMSDNPLGAVQCPGSQFECPDSATCCIMVDGSWGCCPMPQASCCEDRVHCCPHGASCDLVHTRCVSPTGTHTLLKKFPAQKTNSAVSLPFSVVCPDAKTQCPDDSTCCELPTGKYGCCPMPNAICCSDHLHCCPQDTVCDLIQSKCLSKNYTTDLLTKLPGYPVKEVKCDMEVSCPEGYTCCRLNTGAWGCCPFAKAVCCDDHIHCCPAGFQCHTEKGTCEMGILQVGWMKKVIAPLRLPDPQILKSDTPCDDFTRCPTNNTCCKLNSGDWGCCPIPEAVCCSDNQHCCPQGFTCLAQGYCQKGDTMVAGLEKIPARQTTPLQIGDIGCDQHTSCPVGQTCCPSLKGSWACCQLPHAVCCEDRQHCCPAGYTCNVKARTCEKDVDFIQPPVLLTLGPKVGNVECGEGHFCHDNQTCCKDSAGVWACCPYLKGVCCRDGRHCCPGGFHCSARGTKCLRKKIPRWDMFLRDPVPRPLL
modifications: the labelled form is 125I-iodinated by the chloramine T method (residues not stated)
Take B1: the sites/cell was 17000 sites/cell in test [1] and 560 sites/cell in test [2]. Moreover, the Kd was found to be 3.9 nM in test [3] and 0.043 nM in test [4].

By Kd is commonly meant the concentration at which binding is half-saturated. Low values mean tighter binding, high ones weaker binding.
